Values quoted from earlier work, collected in publication PMC8035261.

Columns and labels:
SV2 = SV2 (UniProt Q9Z2I6)
FGFR3 (Homo sapiens) = FGFR3 (Homo sapiens) (UniProt P22607)
UniProt P22607, sequence (P22607 23-806): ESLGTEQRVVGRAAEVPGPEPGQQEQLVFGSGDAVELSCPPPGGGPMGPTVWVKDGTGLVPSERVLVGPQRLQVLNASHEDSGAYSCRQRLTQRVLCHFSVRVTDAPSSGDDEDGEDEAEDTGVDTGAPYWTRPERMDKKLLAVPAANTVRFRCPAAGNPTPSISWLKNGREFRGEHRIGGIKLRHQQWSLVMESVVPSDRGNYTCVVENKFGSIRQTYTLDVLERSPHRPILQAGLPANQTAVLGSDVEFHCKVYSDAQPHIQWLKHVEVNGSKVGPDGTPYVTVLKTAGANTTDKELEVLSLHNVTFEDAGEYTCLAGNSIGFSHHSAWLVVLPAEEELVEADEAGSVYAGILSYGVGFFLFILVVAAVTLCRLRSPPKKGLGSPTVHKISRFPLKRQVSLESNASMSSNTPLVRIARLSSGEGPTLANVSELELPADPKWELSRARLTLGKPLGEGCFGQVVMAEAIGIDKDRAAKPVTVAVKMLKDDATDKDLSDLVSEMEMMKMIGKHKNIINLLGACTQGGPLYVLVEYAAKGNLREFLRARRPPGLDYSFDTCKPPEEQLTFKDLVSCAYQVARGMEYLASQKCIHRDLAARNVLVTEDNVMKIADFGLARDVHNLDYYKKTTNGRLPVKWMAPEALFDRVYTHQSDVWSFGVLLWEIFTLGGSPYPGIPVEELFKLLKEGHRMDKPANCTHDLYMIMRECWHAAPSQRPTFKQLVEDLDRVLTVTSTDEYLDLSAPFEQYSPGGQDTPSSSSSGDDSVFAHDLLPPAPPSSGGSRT

UniProt Q9Z2I6, sequence (Q9Z2I6 whole entry): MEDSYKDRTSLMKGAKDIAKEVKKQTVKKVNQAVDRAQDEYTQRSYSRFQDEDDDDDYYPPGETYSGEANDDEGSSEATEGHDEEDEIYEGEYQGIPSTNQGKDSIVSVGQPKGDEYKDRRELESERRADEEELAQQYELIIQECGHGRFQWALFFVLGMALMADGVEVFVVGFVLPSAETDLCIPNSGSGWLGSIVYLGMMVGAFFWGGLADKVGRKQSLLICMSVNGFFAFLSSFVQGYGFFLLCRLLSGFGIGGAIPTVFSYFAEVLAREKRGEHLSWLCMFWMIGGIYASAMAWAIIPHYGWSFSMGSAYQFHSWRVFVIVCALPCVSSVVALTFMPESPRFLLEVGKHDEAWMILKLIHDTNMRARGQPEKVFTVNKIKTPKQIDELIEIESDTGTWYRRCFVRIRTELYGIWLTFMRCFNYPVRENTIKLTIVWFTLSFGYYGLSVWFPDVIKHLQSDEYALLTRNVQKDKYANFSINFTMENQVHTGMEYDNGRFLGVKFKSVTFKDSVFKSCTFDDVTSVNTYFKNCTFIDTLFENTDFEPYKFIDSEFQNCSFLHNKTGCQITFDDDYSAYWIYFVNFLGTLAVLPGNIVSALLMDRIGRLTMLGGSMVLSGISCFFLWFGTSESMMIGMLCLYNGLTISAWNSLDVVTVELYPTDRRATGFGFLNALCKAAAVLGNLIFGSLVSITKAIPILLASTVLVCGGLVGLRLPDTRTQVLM

Substance: BoNT/A (from UniProt P0DPI1)
- Kd (SV2): 100 nM
- Kd (FGFR3 (Homo sapiens)): 15 nM
